Data on one variant can be found in IntAct's records for PubMed 19955185.

B1: Peroxisome proliferator-activated receptor alpha (Homo sapiens), Q07869 (parent)
chain: MVDTESPLCPLSPLEAGDLESPLSEEFLQEMGNIQEISQSIGEDSSGSFGFTEYQYLGSCPGSDGSVITDTLSPASSPSSVTYPVVPGSVDESPSGALNIECRICGDKASGYHYGVHACEGCKGFFRRTIRLKLVYDKCDRSCKIQKKNRNKCQYCRFHKCLSVGMSHNAIRFGRMPRSEKAKLKAEILTCEHDIEDSETADLKSLAKRIYEAYLKNFNMNKVKARVILSGKASNNPPFVIHDMETLCMAEKTLVAKLVANGIQNKEAEVRIFHCCQCTSVETVTELTEFAKAIPGFANLDLNDQVTLLKYGVYEAIFAMLSSVMNKDGMLVAYGNGFITREFLKSLRKPFCDIMEPKFDFAMKFNALELDDSDISLFVAAIICCGDRPGLLNVGHIEKMQEGIVHVLRLHLQSNHPDDIFLFPKLLQKMADLRQLVTEHAQLVQIIKKTESDAALHPLLQEIYRDMY

In this assay the parent is B1. The note with it: with ncor1_human NCOR1, O75376.
ncor1_human NCOR1, O75376, sequence (O75376 whole entry): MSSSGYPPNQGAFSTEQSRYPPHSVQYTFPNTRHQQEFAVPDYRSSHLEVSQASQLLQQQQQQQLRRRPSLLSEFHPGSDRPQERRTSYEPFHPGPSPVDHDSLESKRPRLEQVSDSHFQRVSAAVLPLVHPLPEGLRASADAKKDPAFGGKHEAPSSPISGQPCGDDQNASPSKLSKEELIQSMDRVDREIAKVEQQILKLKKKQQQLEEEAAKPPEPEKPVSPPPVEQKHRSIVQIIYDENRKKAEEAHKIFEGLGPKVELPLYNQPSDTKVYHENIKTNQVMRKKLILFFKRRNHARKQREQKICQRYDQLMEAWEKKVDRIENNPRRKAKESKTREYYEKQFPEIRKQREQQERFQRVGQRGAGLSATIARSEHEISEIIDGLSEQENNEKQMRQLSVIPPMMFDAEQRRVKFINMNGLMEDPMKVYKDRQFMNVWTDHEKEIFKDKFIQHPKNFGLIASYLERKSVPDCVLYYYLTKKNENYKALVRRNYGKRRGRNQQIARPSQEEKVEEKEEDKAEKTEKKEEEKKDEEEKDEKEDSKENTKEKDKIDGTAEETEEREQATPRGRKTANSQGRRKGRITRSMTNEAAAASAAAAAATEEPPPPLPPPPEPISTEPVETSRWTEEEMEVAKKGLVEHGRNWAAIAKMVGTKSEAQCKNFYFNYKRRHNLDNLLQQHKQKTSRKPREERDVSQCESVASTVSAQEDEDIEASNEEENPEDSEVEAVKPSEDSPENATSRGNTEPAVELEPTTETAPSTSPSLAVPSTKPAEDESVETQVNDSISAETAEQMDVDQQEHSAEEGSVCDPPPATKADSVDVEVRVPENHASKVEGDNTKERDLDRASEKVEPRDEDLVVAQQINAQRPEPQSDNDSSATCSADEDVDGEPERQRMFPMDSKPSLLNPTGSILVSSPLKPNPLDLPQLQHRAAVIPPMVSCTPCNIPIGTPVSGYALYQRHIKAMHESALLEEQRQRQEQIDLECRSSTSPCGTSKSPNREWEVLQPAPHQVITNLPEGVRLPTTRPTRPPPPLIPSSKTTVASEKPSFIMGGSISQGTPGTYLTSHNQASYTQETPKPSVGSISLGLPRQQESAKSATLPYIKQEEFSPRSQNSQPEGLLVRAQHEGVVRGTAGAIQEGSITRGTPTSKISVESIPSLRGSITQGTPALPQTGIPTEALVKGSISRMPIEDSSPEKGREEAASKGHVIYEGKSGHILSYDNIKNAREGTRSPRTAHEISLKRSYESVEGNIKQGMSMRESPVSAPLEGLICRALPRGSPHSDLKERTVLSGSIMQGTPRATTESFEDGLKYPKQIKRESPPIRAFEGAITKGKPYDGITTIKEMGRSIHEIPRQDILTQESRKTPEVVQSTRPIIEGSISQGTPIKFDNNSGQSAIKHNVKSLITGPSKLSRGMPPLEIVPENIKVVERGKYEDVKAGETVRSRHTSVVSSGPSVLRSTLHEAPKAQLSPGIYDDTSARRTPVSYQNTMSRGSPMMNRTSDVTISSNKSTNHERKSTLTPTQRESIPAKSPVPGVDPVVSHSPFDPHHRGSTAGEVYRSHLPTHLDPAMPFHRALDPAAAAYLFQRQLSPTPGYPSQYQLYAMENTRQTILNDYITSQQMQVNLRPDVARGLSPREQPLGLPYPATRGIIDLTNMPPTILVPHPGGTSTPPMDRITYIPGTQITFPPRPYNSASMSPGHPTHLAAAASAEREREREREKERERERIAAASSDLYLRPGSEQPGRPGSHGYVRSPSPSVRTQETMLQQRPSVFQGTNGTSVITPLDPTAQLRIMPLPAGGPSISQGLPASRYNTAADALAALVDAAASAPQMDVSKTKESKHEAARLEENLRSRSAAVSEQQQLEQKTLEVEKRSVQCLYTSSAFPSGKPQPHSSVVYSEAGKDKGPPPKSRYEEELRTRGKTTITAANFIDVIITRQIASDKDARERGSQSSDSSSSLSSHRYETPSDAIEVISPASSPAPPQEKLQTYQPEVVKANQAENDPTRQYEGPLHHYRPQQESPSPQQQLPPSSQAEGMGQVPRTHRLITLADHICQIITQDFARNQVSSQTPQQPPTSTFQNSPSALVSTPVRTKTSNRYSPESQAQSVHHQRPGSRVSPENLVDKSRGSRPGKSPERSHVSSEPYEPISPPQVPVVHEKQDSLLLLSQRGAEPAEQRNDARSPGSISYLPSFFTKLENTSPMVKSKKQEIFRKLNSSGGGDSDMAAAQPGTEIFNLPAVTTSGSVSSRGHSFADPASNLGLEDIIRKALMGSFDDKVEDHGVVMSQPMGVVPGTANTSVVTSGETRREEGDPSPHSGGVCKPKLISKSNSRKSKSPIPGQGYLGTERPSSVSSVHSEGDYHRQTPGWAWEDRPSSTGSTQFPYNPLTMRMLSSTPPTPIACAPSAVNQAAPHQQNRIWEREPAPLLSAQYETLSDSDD
Consider K185R, for which the “effect of a mutation on the interaction” value was “decreasing interaction”.
